Results: PMC4488664, “An Inactive Geminin Mutant That Binds Cdt1” (Genes, 2015)

T1: mouse Cdt1^172-368 (mouse, UniProt Q8R4E9 172-368)
T1 chain: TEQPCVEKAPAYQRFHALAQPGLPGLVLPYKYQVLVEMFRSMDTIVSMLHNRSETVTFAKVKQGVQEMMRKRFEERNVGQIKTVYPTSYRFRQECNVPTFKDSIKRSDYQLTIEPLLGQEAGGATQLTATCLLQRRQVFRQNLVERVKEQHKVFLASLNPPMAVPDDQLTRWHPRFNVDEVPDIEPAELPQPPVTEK

T2: mouse Cdt1^172-368 (mouse, UniProt Q8R4E9 172-368)
T2 construct: Cdt1, mouse, residues 172-368; Inserted between the NdeI and KpnI sites of pET Duet 1; source: E. coli BL21, purified, dialyzed
T2 sequence (looked up): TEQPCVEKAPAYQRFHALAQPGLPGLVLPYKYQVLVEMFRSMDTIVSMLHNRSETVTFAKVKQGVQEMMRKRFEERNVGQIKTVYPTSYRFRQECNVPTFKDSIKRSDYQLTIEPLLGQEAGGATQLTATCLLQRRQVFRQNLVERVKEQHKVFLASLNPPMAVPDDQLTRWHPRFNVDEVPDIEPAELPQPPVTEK


Key:
[1] = target: T1, mouse Cdt1^172-368; assay: ITC
[2] = target: mouse Cdt1^172-368 (mouse) (UniProt Q8R4E9); assay: ITC; MicroCal ITC200, 18 °C; 20 mM Na-HEPES pH 7.5, 300 mM NaCl, 7 mM β-mercaptoethanol; 17 injections of Geminin (WT 0.432 mM, AWA 0.297 mM) into 200 µL Cdt1 (0.044 mM)
[3] = target: T2, mouse Cdt1^172-368; assay: as above; settings: both partners purified

Ka [1] [M⁻¹]	Kd [2] [nM]	Kd [3] [nM]	Binder
4e+06	250	–	mouse Geminin^79-157 AWA (domain or fragment) TQEAFDLISKENPSSQAWAEVAEQRRKALYEALKENEKLHKEIEQKDSEIARLRKENKDLAEVAEHVQYMAEVIERLSN
3.5e+06	–	290	mouse Geminin^79-157 wild type (domain or fragment, UniProt O88513 79-157, looked up, Geminin, mouse, residues 79-157 (methods); Limits differ between methods (79-157) and legend (72-157); also called Geminin^WT; source: E. coli BL21, purified over nickel-NTA agarose, dialyzed) TQEAFDLISKENPSSQYWKEVAEQRRKALYEALKENEKLHKEIEQKDSEIARLRKENKDLAEVAEHVQYMAEVIERLSN
